The values below come from the DeepSol protein solubility set.

The series is described as follows: soluble on expression in E. coli; label from the status in PepcDB or PDB records.
Take “MTIPLHTITSFRATFNPFSRSARPCRLLLSLLRNPSTTPASSPTHIDIQVTQLPRHSTQPPEMTVGFRGGKEVKIEVGKKQMKIGDVIEELARVGRSIEREETLKG”: the “soluble on expression in E. coli” value is “not soluble”. As for “MTQMNFTDRATRVAIIANGKYQSKRVASKLFAAFKHDPDFYLSKKDPDIVISIGGDGMLLSAFHMYEKQLDKVRFVGVHTGHLGFYTDYRDFEVDTLINNLKNDKGEQISYPILKVTITLEDGRVIRARALNESTIKRIEKTMVADVVINQVVFERFRGDGILVSTPTGSTAYNKSLGGAVLHPTIEALQLTEISSLNNRVYRTLGSSVIIPKKDAIEIVPKRVGVYTISIDNKTVHYKNVTKIEYSIDEKSINFVSTPSHTSFWERVNDAFIGEPEHLEHHHHHH”, the “soluble on expression in E. coli” value is recorded as “not soluble”. As for “MKFLITGGAGFIGSNLAFALQERYPEAKIYVLDNFSSGHFKNLIGFKGQVITGDISDPSLWDYVRKNFHFDVIFHEAAITDTTVEDQYFMMKTNADSFRYILDLAVEWNAKVIYASSAGVYGNSPPPMREDKGLEPENIYGFSKLMMDHIAMDYMERYPEMNIVGLRYFNVYGPREDYKGKTASMIYQLAVKMIKGERPRLFKWGEQRRDFVYIKDVIKANLLALEKNVSGIFNVGTGRARSFNEIVSILNKELGTNYEIEYFDCPYDFYQKFTEADLTKIREALGYEPEYSLEEGIKDYLPYIIKRVKK”, the “soluble on expression in E. coli” value is “soluble”.

As for “MLGMYVPDRFALKSSRVQDGMGLYTARRVRKGEKFGPFAGEKRMPEDLDENMDYRLMWEVRGSKGEVLYILDATNPRHSNWLRFVHEAPSQERKNLAAIQEGENIFYLAVDDIETDTELLIGYLDSDVEAEEEEQQALTMTKEGKVDHSKGQLAAGSKGHLGCEEDFACPQCESSFPSEEVLTEHLQSLHQKPTGEKEFKCENCGKKFPVRQALQRHFEQHRKACRGEARFVCKADSCGKRLKSKDALRRHQENVHTGDPKRKLICSVCNRKCTSVSSLQEHRKIHEIFDCQECMKKFISANQLKRHMITHSEKRPYNCEICNKSFKRLDQVGAHKVIHSEDKPYQCKLCGKGFAHRNVYKNHKKTHSEERPFQCDACKALFRTPFSLQRHLLIHNSERTFKCHHCDATFKRKDTLNVHVQVVHERHKKYRCELCNKAFVTPSVLRSHKKTHTGEKEKVCPYCGQKFASSGTLRVHIRSHTGERPYQCPYCEKGFSKNDGLKMHIRTHTREKPYQCSECSKAFSQKRGLDATKRTHTGEKPFQCDVCDLAFSLKKMLIRHKMTHNPNRPMAECHFCHKKFTRNDYLKVHMDNIHGVADS”, the “soluble on expression in E. coli” value is “soluble”. As for “MIEKVYCQEVKPELDGKKVRLAGWVYTNMRVGKKIFLWIRDSTGIVQAVVAKNVVGEETFEKAKKLGRESSVIVEGIVKADERAPGGAEVHVEKLEVIQAVSEFPIPENPEQASPELLLDYRHLHIRTPKASAIMKVKETLIMAAREWLLKDGWHEVFPPILVTGAVEGGATLFKLKYFDKYAYLSQSAQLYLEAAIFGLEKVWSLTPSFRAEKSRTRRHLTEFWHLELEAAWMDLWDIMKVEEELVSYMVQRTLELRKKEIEMFRDDLTTLKNTEPPFPRISYDEAIDILQSKGVNVEWGDDLGADEERVLTEEFDRPFFVYGYPKHIKAFYMKEDPNDPRKVLASDMLAPEGYGEIIGGSQREDDYDKLLNRILEEGMDPKDYEWYLDLRRYGSVPHSGFGLGVERLVAWVLKLDHIRWAALFPRTPARLYP”, the entry is “soluble”; as for “MGSDKIHHHHHHMPPAIAPRFIYCRVCDACGFAARRSRFSGHAASGHRAAASAFLRPRMNVTTSDDCIGVLPDHPWAKHFIVLGYRDGAFSTIPNNFFRNWLDEEAQVGTFHIGRCSGLGVGSIAKYDQGLQKLVIGKNVAGGMRLRFLLNGQHEMRTISTSLFSIYGNGLENAPMPQYPDTVIHNDVWIGDEALFLGGSQIESGCVIGARAVIPPNFRTEAYGIYAGSPARLVRFRFTEKVREKLLQLAWWDMPLDWIKRNNHAFLVDLTANEGRALDTLAALQESKDNATGEAGRQTAAATPV”, “not soluble”.

Consider “SLKLLIEEFIPVEEISEEAKKEKLGNAKPPIFSLHYWWARKPLITARAAVLGALISKENLPMIVGNGDLKTNLLRILRIPKDINEGPRAHTQDPPAEYLKEAIIKTWGEIPTVLDPFAGGGSIPFEALRLGCNAVAVDYNPVAYLILKETLEYPKKYGMKLIL”, for which the “soluble on expression in E. coli” value was “soluble”. On to “MNTISILSTTDLPAAWQIEQRAHAFPWSEKTFFGNQGERYLNLKLTADDRMAAFAITQVVLDEATLFNIAVDPDFQRRGLGRMLLEHLIDELETRGVVTLWLEVRASNAAAIALYESLGFNEATIRRNYYPTAQGHEDAIIMALPISMKLHHHHHHHHHH”, for which the “soluble on expression in E. coli” value is listed as “soluble”. On to “MEALADVGVLASWSPLHKQVEVIDYYPDGRPHHVRATVKILGLVDKEVLEYHWGPDWVCWDADQTFQQHGQHIEYTVKPEGVDRARVRFDITVEPAGPIPGFIVKRASEHVLDAAAKGLQKLIAGAGDQGNAKSLEHHHHHH”, for which the “soluble on expression in E. coli” value is “not soluble”. Turning to “MAQDWNDKIESAQKMLPLIAQLHNNNNVVVSVFGRLLINVTDIDIVKAHRYSRLATETELSPADTLPVLEALHSINVGPASIDLGRLVELHRSKGGDLTQFLTEELSNVIDTRPA”, the “soluble on expression in E. coli” value was “not soluble”. As for “MTYSGLNLNQDKATKPQTVQIVRQGEATLYWFLLIHYRFRRERRETQSLLMTRNTLKFIPFWSYKHITYAIFLYSRLPENSGQEYLTQRKAEKATKNNLHLSRLVSPTLGVQTIQSFRLPLFVYKINF”, the entry is “not soluble”; as for “ADVPAGVQLADKQTLVRNNGSEVQSLDPHKIEGVPESNVSRDLFEGLLISDVEGHPSPGVAEKWENKDFKVWTFHLRENAKWSDGTPVTAHDFVYSWQRLADPNTASPYASYLQYGHIANIDDIIAGKKPATDLGVKALDDHTFEVTLSEPVPYFYKLLVHPSVSPVPKSAVEKFGDKWTQPANIVTNGAYKLKNWVVNERIVLERNPQYWDNAKTVINQVTYLPISSEVTDVNRYRSGEIDMTYNNMPIELFQKLKKEIPNEVRVDPYLCTYYYEINNQKAPFNDVRVRTALKLALDRDIIVNKVKNQGDLPAYSYTPPYTDGAKLVEPEWFKWSQQKRNEEAKKLLAEAGFTADKPLTFDLLYNTSDLHKKLAIAVASIWKKNLGVNVNLENQEWKTFLDTRHQGTFDVARAGWCADYNEPTSFLNTMLSDSSNNTAHYKSPAFDKLIADTLKVADDTQRSELYAKAEQQLDKDSAIVPVYYYVNARLVKPWVGGYTGKDPLDNIYVKNLYIIKH”, “soluble”. In the case of “STFSKAAPSVPSKPSDCNFISNFYSHSRLHHISMWKCELTEFVNTLQRQSNGIFPGREKLKKMKTGRSALVVTDTGDMSVLNSPRHQSCIMHVDMDCFFVSVGIRNRPDLKGKPVAVTSNRGTGRAPLRPGANPQLEWQYYQNKILKGKAADIPDSSLWENPDSAQANGIDSVLSRAEIASCSYEARQLGIKNGMFFGHAKQLCPNLQAVPYDFHAYKEVAQTLYETLASYTHNIEAVSCDEALVDITEILAETKLTPDEFANAVRMEIKDQTKCAASVGIGSNILLARMATRKAKPDGQYHLKPEEVDDFIRGQLVTNLPGVGHSMESKLASLGIKTCGDLQYMTMAKLQKEFGPKTGQMLYRFCRGLDDRPVRTEKERKSVSAEINYGIRFTQPKEAEAFLLSLSEEIQRRLEATGMKGKRLTLKIMVRKPGAPVETAKFGGHGICDNIARTVTLDQATDNAKIIGKAMLNMFHTMKLNISDMRGVGIHVNQLVPTNLNPST”, the “soluble on expression in E. coli” value was “soluble”. Regarding “MSLIKMIALDLDETLLNTDKTISEENATALRQLHEAGIKIVLCTGRPINAIWHYLEQLGLTTDDDYTITFNGALVIQNSTKEALAQSGLSRNDFEPLHAFAAANHYPMDVLDFDQVYPIADLTPSVYEQMLKAPMKFIPTAFADLPDQLFSKAVMATDAAILDQVVAKLTPELTKLYHVVRSQPKILEFLAADMDKAVGLGQLLTHFGWDFSDLMAFGDAENDLGMIKAAGDGVAMQNGQPAVKAAANHQTPVDNNHAGVAAYLQHVFPELLGEGHHHHHH”, the “soluble on expression in E. coli” value is listed as “soluble”. As for “MTSVDCTAYGPELRALAARLPRTPRADLYAFLDAAHTAAASLPGALATALDTFNAEGSEDGHLLLRGLPVEADADLPTTPSSTPAPEDRSLLTMEAMLGLVGRRLGLHTGYRELRSGTVYHDVYPSPGAHHLSSETSETLLEFHTEMAYHRLQPNYVMLACSRADHERTAATLVASVRKALPLLDERTRARLLDRRMPCCVDVAFRGGVDDPGAIAQVKPLYGDADDPFLGYDRELLAPEDPADKEAVAALSKALDEVTEAVYLEPGDLLIVDNFRTTHARTPFSPRWDGKDRWLHRVYIRTDRNGQLSGGERAGDVVAFTPRG”, the “soluble on expression in E. coli” value is “soluble”.
